According to patent US20200024322A1 (Eli Lilly, published 2020):
Numbered stars: 1 amine (or outer) side, 2 acyl side, 3 side chain; on linkers, the order of the positions; unused ones are H or OH. Square brackets hold non-standard residues; d marks the D form. Side chains are listed from the residue outwards. Ends that are not written are not given here. * marks the point of attachment. C20 diacid = O=C(O)CCCCCCCCCCCCCCCCCCC(=O)*; γGlu = O=C(O)[C@H](CCC(=O)[*:2])N[*:1]; AEEA = NCCOCCOCC(=O)O; Aib = CC(C)(N)C(=O)O

B1: Example 34 (peptide)
peptide: Y[Aib]EGTFTSDYSILLDKIAQ[Aib]AFIK([AEEA-AEEA-γGlu-C20 diacid])YLIEGGPSSGAPPPS-NH2
modifications: N-terminus assumed
SMILES: CC[C@H](C)[C@H](NC(=O)[C@H](CCCCN)NC(=O)[C@H](CC(=O)O)NC(=O)[C@H](CC(C)C)NC(=O)[C@H](CC(C)C)NC(=O)[C@@H](NC(=O)[C@H](CO)NC(=O)[C@H](Cc1ccc(O)cc1)NC(=O)[C@H](CC(=O)O)NC(=O)[C@H](CO)NC(=O)[C@@H](NC(=O)[C@H](Cc1ccccc1)NC(=O)[C@@H](NC(=O)CNC(=O)[C@H](CCC(=O)O)NC(=O)C(C)(C)NC(=O)[C@@H](N)Cc1ccc(O)cc1)[C@@H](C)O)[C@@H](C)O)[C@@H](C)CC)C(=O)N[C@@H](C)C(=O)N[C@@H](CCC(N)=O)C(=O)NC(C)(C)C(=O)N[C@@H](C)C(=O)N[C@@H](Cc1ccccc1)C(=O)N[C@H](C(=O)N[C@@H](CCCCNC(=O)COCCOCCNC(=O)COCCOCCNC(=O)CC[C@H](NC(=O)CCCCCCCCCCCCCCCCCCC(=O)O)C(=O)O)C(=O)N[C@@H](Cc1ccc(O)cc1)C(=O)N[C@@H](CC(C)C)C(=O)N[C@H](C(=O)N[C@@H](CCC(=O)O)C(=O)NCC(=O)NCC(=O)N1CCC[C@H]1C(=O)N[C@@H](CO)C(=O)N[C@@H](CO)C(=O)NCC(=O)N[C@@H](C)C(=O)N1CCC[C@H]1C(=O)N1CCC[C@H]1C(=O)N1CCC[C@H]1C(=O)N[C@@H](CO)C(N)=O)[C@@H](C)CC)[C@@H](C)CC
B2: Example 36 (peptide)
peptide: Y[Aib]EGTFTSDYSILLDKIAQ[Aib]AFIEYLK([AEEA-AEEA-γGlu-C20 diacid])EGGPSSGAPPPS-NH2
modifications: N-terminus assumed
SMILES: CC[C@H](C)[C@H](NC(=O)[C@H](CCCCN)NC(=O)[C@H](CC(=O)O)NC(=O)[C@H](CC(C)C)NC(=O)[C@H](CC(C)C)NC(=O)[C@@H](NC(=O)[C@H](CO)NC(=O)[C@H](Cc1ccc(O)cc1)NC(=O)[C@H](CC(=O)O)NC(=O)[C@H](CO)NC(=O)[C@@H](NC(=O)[C@H](Cc1ccccc1)NC(=O)[C@@H](NC(=O)CNC(=O)[C@H](CCC(=O)O)NC(=O)C(C)(C)NC(=O)[C@@H](N)Cc1ccc(O)cc1)[C@@H](C)O)[C@@H](C)O)[C@@H](C)CC)C(=O)N[C@@H](C)C(=O)N[C@@H](CCC(N)=O)C(=O)NC(C)(C)C(=O)N[C@@H](C)C(=O)N[C@@H](Cc1ccccc1)C(=O)N[C@H](C(=O)N[C@@H](CCC(=O)O)C(=O)N[C@@H](Cc1ccc(O)cc1)C(=O)N[C@@H](CC(C)C)C(=O)N[C@@H](CCCCNC(=O)COCCOCCNC(=O)COCCOCCNC(=O)CC[C@H](NC(=O)CCCCCCCCCCCCCCCCCCC(=O)O)C(=O)O)C(=O)N[C@@H](CCC(=O)O)C(=O)NCC(=O)NCC(=O)N1CCC[C@H]1C(=O)N[C@@H](CO)C(=O)N[C@@H](CO)C(=O)NCC(=O)N[C@@H](C)C(=O)N1CCC[C@H]1C(=O)N1CCC[C@H]1C(=O)N1CCC[C@H]1C(=O)N[C@@H](CO)C(N)=O)[C@@H](C)CC

Key:
human glucagon receptor = target: T1, human glucagon receptor (human, UniProt P47871 26-477); assay: SPA, [125I]-Gcg displacement, hGcgR membranes
T1 construct: whole, on cells; Used as crude membranes of stably transfected HEK293 cells; also called hGcgR; hGLcgR

human GLP-1 receptor = target: T2, human GLP-1 receptor (human, UniProt P43220 24-463); assay: SPA, [125I]-GLP-1 displacement, hGLP-1R membranes
T2 construct: whole, on cells; Used as crude membranes of stably transfected HEK293 cells; also called hGLP1R; hGLP-1R

human GIP receptor = target: T3, human GIP receptor (human, UniProt P48546 22-466); assay: SPA, [125I]-GIP displacement, hGIPR membranes
T3 construct: whole, on cells; Used as crude membranes of stably transfected CHO cells; also called hGIPR
T3 sequence (looked up): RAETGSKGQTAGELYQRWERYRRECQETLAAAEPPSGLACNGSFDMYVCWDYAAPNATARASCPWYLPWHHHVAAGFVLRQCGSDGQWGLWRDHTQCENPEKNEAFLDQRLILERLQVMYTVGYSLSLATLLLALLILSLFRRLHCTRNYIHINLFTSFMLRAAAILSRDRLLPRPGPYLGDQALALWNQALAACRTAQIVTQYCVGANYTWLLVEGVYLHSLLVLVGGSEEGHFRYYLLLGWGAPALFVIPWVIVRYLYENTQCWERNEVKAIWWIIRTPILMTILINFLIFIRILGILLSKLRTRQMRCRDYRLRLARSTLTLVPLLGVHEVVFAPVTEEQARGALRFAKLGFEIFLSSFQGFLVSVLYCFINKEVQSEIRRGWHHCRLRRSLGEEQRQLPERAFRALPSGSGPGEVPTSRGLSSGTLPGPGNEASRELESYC

T1 sequence (P47871 26-477): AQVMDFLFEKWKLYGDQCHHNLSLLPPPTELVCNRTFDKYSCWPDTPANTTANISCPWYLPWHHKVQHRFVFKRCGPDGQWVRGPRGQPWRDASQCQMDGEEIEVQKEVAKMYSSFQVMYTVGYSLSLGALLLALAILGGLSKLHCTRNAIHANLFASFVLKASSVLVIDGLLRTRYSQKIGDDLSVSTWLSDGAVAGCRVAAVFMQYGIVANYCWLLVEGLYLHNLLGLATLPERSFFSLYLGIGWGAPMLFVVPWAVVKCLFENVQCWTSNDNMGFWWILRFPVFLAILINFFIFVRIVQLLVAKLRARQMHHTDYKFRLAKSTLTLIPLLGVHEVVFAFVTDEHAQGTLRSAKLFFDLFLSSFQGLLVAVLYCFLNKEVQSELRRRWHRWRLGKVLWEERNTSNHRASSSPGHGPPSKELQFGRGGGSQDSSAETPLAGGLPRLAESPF

Binder	Ki (human glucagon receptor) [nM]	Ki (human GLP-1 receptor) [nM]	Ki (human GIP receptor) [nM]
B1	134	3.41	0.0467
B2	413	16.4	0.141
